How the values were obtained:
B16-29-10 = assay: Fluorescent antibody technique (flow cytometer), GD3 synthase transfectant; type: binding, mouse; conditions: antibody 5 μg/ml; FIG. 3
Description: (§1) Each of 1×10^6 cells of the GD3 synthase gene transfectants B16-8-3 and B16-29-10 obtained in b. of the item (2) of Example 1 and the parent cell line B16-F10 cell were suspended in PBS, put into a microtube (manufactured by Treff) and centrifuged (2,000 rpm for 2 minutes) for washing the cells, 50 μl of the anti-GD3 human chimeric antibody KM871 (a solution prepared by adjusting to 5 μg/ml with 1% BSA-PBS, negative control was 1% BSA-PBS alone) was added thereto, followed by stirring, and the reaction was carried out at 4° C. for 1 hour. After the reaction and subsequent washing with PBS by centrifugation three times, 100 μl of biotin-labeled goat anti-human IgG (H+L) solution (manufactured by VECTOR, used by diluting 400 folds with 1% BSA-PBS) was added thereto, followed by stirring, and the reaction was carried out at 4° C. for 1 hour. After washing with PBS by centrifugation three times, 100 μl of a streptoavidin-labeled Cy5 pigment solution (Streptoavidin-RED670 manufactured by GIBCO, used by diluting 100 folds with 1% BSA-PBS) was added thereto, followed by stirring, and the reaction was carried out at 4° C. for 30 minutes. After the reaction and subsequent washing with PBS by centrifugation three times, the cells were again suspended in PBS to carry out the analysis using a flow cytometer EPICS Elite (manufactured by COULTER).

B16-8-3 = assay: as above; type: binding, mouse; conditions: antibody 5 μg/ml; FIG. 3
Description: as §1

[1] = system: GD3 expressing B16 cell B16•29-10; assay: Antitumor effects of KM871 with human IL-2, mouse syngeneic graft model; type: in vivo, C57 BL/6 mouse; conditions: FIG. 4; KM871 50 μg/day, IL-2 10 μg/day, days 6-14, tail vein
Description: Six days after the tumor inoculation, the tumor diameter was measured using slide calipers to calculate the tumor volume by the following equation, and individuals having the value within the range of 10 to 80 mm^3 were selected.
Tumor volume=(width)^2×length×0.5
They were divided into groups in such a manner that the average tumor volume became uniform, and then the following administration groups of A to D were arranged to carry out continuous administration of the following agents from the tail vein once a day for 8 days (from the 6th day to 14th day).
IL-2 (Human Recombinant IL-2, Manufactured by Peprotech) Alone Group:
The test was carried out using 5 animals for each group. Each agent was prepared to 200 μl per animal by diluting with a citrate buffer (an aqueous solution of 10 mM citric acid and 150 n sodium chloride, adjusted to pH 6 with sodium hydroxide). From the 6th day after the inoculation, the tumor volume was periodically measured, and the antitumor effects were judged by comparing the mean value of specific volume V/V0 in each group.

[2] = human peripheral blood monocyte as effector; cited from earlier work
[3] = system: human melanoma culture cell line G-361; assay: Reactivity with human cancer cell (immunofluorescent method); type: binding; conditions: antibody 5 μg/ml; FIG. 23
Description: (§2) Reactivity of purified anti-GD3 CDR-grafted antibodies KM8869, KM8870 and KM8871 with human cancer cells was measured as follows. That is, 1×10^6 cells of each of human melanoma culture cell lines G-361 (ATCC CRL 1424) and SK-MEL-28 (ATCC HTB72) were suspended in PBS, put into microtubes and centrifuged (2,000 rpm for 2 minutes), and the thus washed cells were stirred after adding 50 μl of the anti-GD3 chimeric antibody KM871 or the anti-GD3 CDR-grafted antibody, KM8869, KM8870 or KM8871 (a solution adjusted to 5 μg/ml with 1% BSA-PBS) and then allowed to react at 4° C. for 1 hour. After the reaction, followed by centrifugation three times with PBS for washing, 20 μl of rabbit anti-human IgG (H+L) F(ab′)2 solution (manufactured by Wako Pure chemical Industries, used by diluting 30 folds with 1% BSA-PBS) fluorescence-labeled with fluorescein isothiocyanate (hereinafter referred to as “FITC”) was added thereto, followed by stirring, and then the reaction was carried out at 4° C. for 1 hour. After the reaction, followed by centrifugation three times with PBS for washing, the cells were again suspended in PBS to carry out the analysis using a flow cytometer EPICS Elite (manufactured by COULTER). As a control, the analysis was carried out by the same procedure without adding antibodies.

[4] = system: human melanoma culture cell line SK-MEL-28; assay: as above; type: binding; conditions: antibody 5 μg/ml; FIG. 23
Description: as §2

[5] = Reactivity of purified antibodies with GD3 (ELISA); type: binding; conditions: antibody 10 μg/ml, 20 pmol/well; FIG. 22
Description: Each ganglioside (2 nmol) was dissolved in […] of ethanol solution containing 10 μg of dipalmitoylphosphatidylcholine (manufactured by SIGMA) and 5 μg of cholesterol (manufactured by SIGMA). In each well of a 96 well plate for ELISA (manufactured by Greiner), 20 μl of the solution (becomes 20 pmol/well) or 20 μl of the solution diluted with ethanol was respectively dispensed, followed by air-drying, and then PBS containing 1% BSA (hereinafter referred to as “1% BSA-PBS”) was added in 100 μl/well and allowed to react at room temperature for 1 hour to thereby block remaining active groups. After discarding 1% BSA-PBS, culture supernatants of transformants or diluted solutions of humanized antibodies were added in 50 μl/well and allowed to react at room temperature for 1 hour. […] After the reaction and subsequent washing with Tween-PBS, an ABTS substrate solution (a solution prepared by dissolving 0.55 g of 2,2′-azinobis(3-ethylbenzothiazoline-6-sulfonic acid) in 1 L of 0.1 M citrate buffer (pH 4.2) and adding 1 μl/ml hydrogen peroxide just before the use) was added in 50 μl/well for color development and the absorbance at 415 nm (hereinafter referred to as “OD415”) was measured.
Reactivity of purified anti-GD3 CDR-grafted antibodies KM8869, KM8870 and KM8871 with GD3 (manufactured by DIA-IATRON) was measured by the ELISA shown in the item 2 of Reference Example. […]

B16-F10 cell = assay: Fluorescent antibody technique (flow cytometer), parent cell line; type: binding, mouse; conditions: antibody 5 μg/ml; FIG. 3
Description: as §1

B1: KM871: anti-GD3 human chimeric antibody; VH SEQ ID NO:49, VL SEQ ID NO:50, human IgG1 and κ C regions (antibody, listed as Mus musculus, V domains shown)
VH: EVTLVESGGDFVKPGGSLKVSCAASGFAFSHYAMSWVRQTPAKRLEWVAYISSGGSGTYYSDSVKGRFTISRDNAKNTLYLQMRSLRSEDSAMYFCTRVKLGTYYFDSWGQGTTLTVSS
VL: DIQMTQTASSLPASLGDRVTISCSASQDISNYLNWYQQKPDGTVKLLIFYSSNLHSGVPSRFSGGGSGTDYSLTISNLEPEDIATYFCHQYSKLPWTFGGGTKLEIKR
modifications: human IgG1 and kappa constant regions
**Q.** For B1, which reactivity with cells (B16-29-10) is on record?
**A.** The reactivity with cells was “reacted”.

**Q.** And the reactivity with cells (B16-8-3)?
**A.** The reactivity with cells was “reacted”.

**Q.** And the “tumor growth inhibitory effects (mean V/V0)” value [1]?
**A.** The value was “antitumor effects were not found”.

**Q.** What about the “ADCC activity in comparison with the original mouse-derived antibody” value [2] of the same molecule?
**A.** Its value is “increased”.

**Q.** And the reactivity with cells [3]?
**A.** Its reactivity with cells is “showed the reactivity”.

**Q.** And the reactivity with cells [4]?
**A.** Its reactivity with cells is “showed the reactivity”.

**Q.** And the binding to ganglioside [5]?
**A.** Its binding to ganglioside is “bound strongly”.

**Q.** What about the reactivity with cells (B16-F10 cell) of the same molecule?
**A.** The reactivity with cells was “did not show reactivity”.

Reference: patent US20080166345A1, “MEDICAMENTS COMPRISING GENE RECOMBINANT ANTIBODY AGAINST GANGLIOSIDE GD3” (KYOWA HAKKO KOGYO CO., LTD., priority 2001, published 2008)
